{"source": "patent US20160272980", "system": "PTRI20 meganuclease (engineered, pCLS17038) (artificial)", "assay": "cell_activity", "conditions": "P. tricornutum; 6.9% with SCTREX2 (p124); HGT up to 0.197% with donor (p171); empty vector 0", "data": [{"sequence": "GTTTTACGTTGTACGACGTCTAGC (double strand) [PTRI20 target]", "values": [{"measurement": "activity (% mutagenesis)", "result": 0.032}]}]}
